Patent publication US20240325557A1, “TREATMENT OF CANCER” (INNATE PHARMA, priority 2020, published 2024)
Substitutions are numbered along the chain they refer to. Read-outs that look alike come from different tables or passages of the source.

T1: Nectin-4 on SUM185 cells (Homo sapiens, UniProt Q96NY8)
T1 construct: host or cells: SUM185
T1 sequence (Q96NY8 32-510): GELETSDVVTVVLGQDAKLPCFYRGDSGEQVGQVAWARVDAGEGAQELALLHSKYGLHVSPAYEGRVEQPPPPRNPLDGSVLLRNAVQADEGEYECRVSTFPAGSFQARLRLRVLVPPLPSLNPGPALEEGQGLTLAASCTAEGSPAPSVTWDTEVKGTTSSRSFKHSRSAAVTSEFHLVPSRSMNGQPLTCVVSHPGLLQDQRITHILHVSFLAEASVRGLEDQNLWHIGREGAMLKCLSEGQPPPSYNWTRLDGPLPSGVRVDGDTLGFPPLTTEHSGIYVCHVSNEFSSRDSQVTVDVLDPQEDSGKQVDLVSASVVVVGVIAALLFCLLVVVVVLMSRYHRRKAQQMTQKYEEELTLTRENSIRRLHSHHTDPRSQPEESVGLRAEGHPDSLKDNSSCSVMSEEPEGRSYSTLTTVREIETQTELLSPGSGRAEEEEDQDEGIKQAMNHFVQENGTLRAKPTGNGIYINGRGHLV

B1: 5E7 (antibody, V domains shown)
VH: QVQLQQPGAELVKPGASVKLSCKASGYIFTSYWMHWVKQRPGQGLEWIGEIDPSDSYTNYNQKFKGKATLTLDKSSSTTYMQLSSLTSEDSAVYYCVRGYGNYGDYWGQGTTLTVSS
VL: DVVMTQAAFSNPVTLGTSASISCRSSKSLLHSNGITYLYWYLQKPGQSPQLLIYQMSNLASGVPDRFSSSGSGTDFTLRISRVEAEDVGVYYCAQNLELPWTFGGGTKLEIK
B2: 10B12: anti-Nectin-4 antibody, VH SEQ ID NO: 24, VL SEQ ID NO: 25, binds junction of domain C1 and V (antibody, listed as Mus musculus, V domains shown)
VH: B1 VH with I28T, L72V, T79A
VL: B1 VL with V2I

How the values were obtained:
[1] = tested on: SUM190 cells; assay: In vitro ADC cytotoxicity, 5 days, CTG; type: cell-based, human; conditions: antibodies conjugated to ggfg-Dxd or PEG (8U)-Val-Ala-PAB-Exatecan, DAR=8
Protocol: We assessed the ability of the 5E7 antibody (mAb6) conjugated with camptothecin analogues (Dxd or Exatecan) to kill SUM190 cells. […] A first ADC was prepared in which antibodies were conjugated at 8 toxins per antibody (DAR=8) to a camptothecin analogue (Dxd) via a linker comprising an intracellularly cleavable tetrapeptide linker (GGFG) having the structure shown below, referred to as ggfg-Dxd:
A second ADC was prepared in which antibodies were conjugated at 8 toxins per antibody (DAR=8) to another camptothecin analogue (exatecan) via the cleavable linker having the structure below, referred to as PEG (8U)-Val-Ala-PAB-Exatecan:
Luminescence vs. Ab concentration was plotted on graph.
For each ADC, a concentration range of ADC was incubated with nectin-4-expressing cells. After incubation, CTG substrate was added at 1/1 ratio and the luminescent signal was read with a plate reader (Enspire). It allowed quantifying the ATP present (indicator of metabolically active cells) which was proportional to cell viability.

[2] = target: T1, Nectin-4 on SUM185 cells; assay: Flow cytometry titration on SUM185 cells; type: binding; conditions: cells detached with trypsin
Protocol: In this experiment, the ability of anti-Nectin-4 Abs to bind to Nectin-4 on SUM185 cells (expressing relatively high levels of Nectin-4) was assessed by flow cytometry. […] Briefly, SUM185 cells were detached from the flask with trypsin (37° C. for 5 min) and then washed once with media. 50 000 cells were incubated with a concentration range of test antibodies starting from 20 μg/ml (8 points, dilution factor 4) for 30 minutes at 4° C. […] Cells were washed twice with ice-cold SB. Acquisition was done on a flow cytometer.

[3] = tested on: SUM185 cells; assay: Fab-ZAP internalization assay (CTG cell viability); type: cell-based, human
Protocol: The ability of the anti-Nectin-4 antibodies to induce nectin-4 internalization was assessed on SUM190 cell lines expressing lower levels of nectin-4 and in SUM185 cells expressing higher levels of Nectin-4. The internalization was indirectly determined by using the Fab-ZAP human Internalization Kit (Advanced Targeting Systems) to allow the anti-Nectin-4 antibodies to target and eliminate Nectin-4 expressing cells, with measurement of cell viability using the CTG substrate (CellTiter-Glo® Luminescent Cell Viability Assay (Promega). Fab-ZAP is a chemical conjugate of goat anti-human monovalent antibody and the ribosome-inactivating protein, saporin. The antibodies used are affinity-purified polyclonal antibodies against both the heavy and light chain of human IgG. This secondary conjugate is used to evaluate the potential of a primary antibody to internalize.
Briefly, a concentration range of the anti-Nectin-4 antibodies or the controls were incubated with SUM190 or SUM185 cells. After 45-minute incubation at 4° C., the non-bound antibodies were washed away and Fab-ZAP was added on top of the cells. The newly formed complexes (anti-nectin-4 antibody+Fab-ZAP) internalized into the cells where the Saporin was released and stopped the protein synthesis leading to cell death. The internalization capability of the antibody was indirectly determined by the cell's viability: the more efficient was the cell killing; the better was the internalization capability of the antibody.

[4] = tested on: rat Nectin-4; assay: Flow cytometry species cross-reactivity on CHO cells; type: binding
Sequence of rat Nectin-4 (as listed by the source): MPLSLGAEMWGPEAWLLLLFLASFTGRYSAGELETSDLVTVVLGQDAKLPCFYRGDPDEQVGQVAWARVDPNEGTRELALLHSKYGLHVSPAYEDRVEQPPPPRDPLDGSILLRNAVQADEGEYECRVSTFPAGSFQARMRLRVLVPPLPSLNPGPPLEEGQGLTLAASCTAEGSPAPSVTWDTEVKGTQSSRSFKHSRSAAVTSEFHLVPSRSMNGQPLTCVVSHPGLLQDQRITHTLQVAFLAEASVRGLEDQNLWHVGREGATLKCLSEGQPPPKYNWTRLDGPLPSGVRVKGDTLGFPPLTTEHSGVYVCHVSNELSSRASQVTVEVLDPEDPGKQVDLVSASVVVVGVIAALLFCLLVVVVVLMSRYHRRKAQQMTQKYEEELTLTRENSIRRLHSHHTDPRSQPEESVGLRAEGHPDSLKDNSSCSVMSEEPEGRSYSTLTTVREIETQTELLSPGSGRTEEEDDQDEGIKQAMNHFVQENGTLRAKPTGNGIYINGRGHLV
Protocol: Anti-Nectin-4 antibodies were tested by flow cytometry for binding to different CHO cell lines made to express respectively the mouse, cynomolgus and rat Nectin-4 protein (including an N-terminal V5 tag not shown in the sequences below).

Molecule | killing of SUM190 cells (cell viability) [1] | binding profile on SUM185 cells [2] | induction of internalization [3] | binding to rat Nectin-4 expressing CHO cells [4] | binding to rat Nectin-4 expressing CHO cells ([4]; listed as mAb6) | binding to rat Nectin-4 expressing CHO cells ([4]; listed as mAb7)
B1 | more potent that mAb3 conjugated to camptothecin analogue | lower plateau for binding to the SUM185 cells | more efficient than enfortumab in inducing internalization | showed binding to rat Nectin 4 expressing cells | bind to rat Nectin-4 | 
B2 |  | lower plateau for binding to the SUM185 cells |  | showed binding to rat Nectin 4 expressing cells |  | bind to rat Nectin-4
